Target: soluble αβ-tubulin heterodimer (bovine) (UniProt Q6B856)
Assay: ITC

B1: MEKK1 TOG domain, MEKK1(542–888) (domain or fragment)
chain: THYGTQQIPPAYKDLAEPWIQVFGMELVGCLFSRNWNVREMALRRLSHDVSGALLLANGESTGNSGGSSGSSPSGGATSGSSQTSISGDVVEACCSVLSMVCADPVYKVYVAALKTLRAMLVYTPCHSLAERIKLQRLLQPVVDTILVKCADANSRTSQLSISTLLELCKGQAGELAVGREILKAGSIGIGGVDYVLNCILGNQTESNNWQELLGRLCLIDRLLLEFPAEFYPHIVSTDVSQAEPVEIRYKKLLSLLTFALQSIDNSHSMVGKLSRRIYLSSARMVTTVPHVFSKLLEMLSVSSSTHFTRMRRRLMAIADEVEIAEAIQLGVEDTLDGQQDSFLQAS
**Q.** For B1, which Kd is on record?
**A.** 0.63 µM

**Q.** And the stoichiometry N?
**A.** 1

From article doi:10.1101/2020.04.07.030676
